Laboratory results published in the supplement of paper PMC7877785.
± gives the uncertainty stated by the source.

Assay: self-splicing fitness, log relative to wild type (ln ratio); higher = more splicing; Tetrahymena group I intron in knt gene, E. coli kanamycin selection, DiMSum; sequences stand for … in CUCUCU…GGAGGGAAAAGUUAUCAGGCAUGCACCUGGUAGCUAGUCUUUAAACCAAUAGAUUGCAUCGGUUUAAAAGGCAAGACCGUCAAAUUGCGGGAAAGGGGUCAACAGCCGUUCAGUACCAAGUCUCAGGGGAAACUUUGAGAUGGCCUUGCAAAGGGUAUGGUAAUAAGCUGACGGACAUGGUCCUAACCACGCAGCCAAGUCCUAAGUCAACAGAUCUUCUGUUGAUAUGGAUGCAGUUCACAGACUAAAUGUCGGUCGGGGAAGAUGUAUUCUUCUCAUAAGAUAUAGUCGGACCUCUCCUUAAUGGGAGCUAGCGGAUGAAGUGAUGCAACACUGGAGCCGCUGGGAACUAAUUUGUAUGCGAAAGUAUAUUGAUUAGUUUUGGAGUACUCGUGGUCG
Summary of the method: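 Colonies from six replicate transformations of E. coli BL21(DE3) were pooled and amplicon-sequenced on an Illumina HiSeq 2500. The library placed an intron with all eight P1ex-region nucleotides randomised inside the knt kanamycin-resistance gene on pET-22b(+), and cells grew overnight at 37°C or 30°C on LB agar with or without 25 μg/mL kanamycin (plus 100 μg/mL carbenicillin, 50 μM IPTG, 0.2% rhamnose). Fitness is the DiMSum error-weighted combination of wild-type-normalised replicate fold changes, kanamycin versus none.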

Sequence: GUCUAGCAAUAUUACGUGUU
- self-splicing fitness (ln) (30 °C): -1.61 ± 0.092
- self-splicing fitness (ln) (37 °C): -0.352 ± 0.093

Sequence: UUACAGCAAUAUUACGUCUG
- self-splicing fitness (ln) (30 °C): -1.59 ± 0.13
- self-splicing fitness (ln) (37 °C): -1.07 ± 0.12

Sequence: ACUCAGCAAUAUUACGAUAU
- self-splicing fitness (ln) (30 °C): -1.1 ± 0.081
- self-splicing fitness (ln) (37 °C): -0.759 ± 0.11

Sequence: AGUCAGCAAUAUUACGCAUC
- self-splicing fitness (ln) (30 °C): -1.32 ± 0.1
- self-splicing fitness (ln) (37 °C): -0.329 ± 0.12

Sequence: CUUUAGCAAUAUUACGAACU
- self-splicing fitness (ln) (30 °C): -3.28 ± 0.24
- self-splicing fitness (ln) (37 °C): -2.54 ± 0.19

Sequence: CGCUAGCAAUAUUACGGCAU
- self-splicing fitness (ln) (30 °C): -1.89 ± 0.093
- self-splicing fitness (ln) (37 °C): -0.622 ± 0.083

Sequence: AUCAAGCAAUAUUACGCGCA
- self-splicing fitness (ln) (30 °C): -0.314 ± 0.073
- self-splicing fitness (ln) (37 °C): 0.448 ± 0.098

Sequence: AUGUAGCAAUAUUACGACCC
- self-splicing fitness (ln) (30 °C): -0.73 ± 0.26
- self-splicing fitness (ln) (37 °C): -0.517 ± 0.3

Sequence: CUUAAGCAAUAUUACGGUUG
- self-splicing fitness (ln) (30 °C): -1.95 ± 0.14
- self-splicing fitness (ln) (37 °C): -1.3 ± 0.14

Sequence: UGCCAGCAAUAUUACGAGCA
- self-splicing fitness (ln) (30 °C): -1.75 ± 0.26
- self-splicing fitness (ln) (37 °C): -0.682 ± 0.27

Sequence: UGCUAGCAAUAUUACGCCCG
- self-splicing fitness (ln) (30 °C): -0.583 ± 0.19
- self-splicing fitness (ln) (37 °C): 0.807 ± 0.3

Sequence: GGUAAGCAAUAUUACGGGCA
- self-splicing fitness (ln) (30 °C): -0.438 ± 0.082
- self-splicing fitness (ln) (37 °C): 0.103 ± 0.1

Sequence: ACGGAGCAAUAUUACGAUUG
- self-splicing fitness (ln) (30 °C): -3.04 ± 0.25
- self-splicing fitness (ln) (37 °C): -1.43 ± 0.22

Sequence: CGACAGCAAUAUUACGCAUG
- self-splicing fitness (ln) (30 °C): -1.37 ± 0.075
- self-splicing fitness (ln) (37 °C): -0.351 ± 0.074

Sequence: UUACAGCAAUAUUACGCUGA
- self-splicing fitness (ln) (30 °C): -3.22 ± 0.17
- self-splicing fitness (ln) (37 °C): -2.55 ± 0.19

Sequence: CUCGAGCAAUAUUACGUCAU
- self-splicing fitness (ln) (30 °C): -4.1 ± 0.27
- self-splicing fitness (ln) (37 °C): -3.38 ± 0.28

Sequence: UAUCAGCAAUAUUACGGGCC
- self-splicing fitness (ln) (37 °C): -2.07 ± 0.3

Sequence: ACCAAGCAAUAUUACGGCCU
- self-splicing fitness (ln) (30 °C): -0.444 ± 0.072
- self-splicing fitness (ln) (37 °C): -0.31 ± 0.083

Sequence: AAGGAGCAAUAUUACGGACG
- self-splicing fitness (ln) (37 °C): -0.216 ± 0.26

Sequence: GGAAAGCAAUAUUACGUCCA
- self-splicing fitness (ln) (30 °C): -1.37 ± 0.28
- self-splicing fitness (ln) (37 °C): -0.294 ± 0.26

Sequence: AGACAGCAAUAUUACGUAAC
- self-splicing fitness (ln) (30 °C): -3.82 ± 0.15
- self-splicing fitness (ln) (37 °C): -1.69 ± 0.15

Sequence: AAAGAGCAAUAUUACGGUGG
- self-splicing fitness (ln) (30 °C): -2.85 ± 0.15
- self-splicing fitness (ln) (37 °C): -2.14 ± 0.25

Sequence: CACAAGCAAUAUUACGCUAU
- self-splicing fitness (ln) (30 °C): -4.42 ± 0.26
- self-splicing fitness (ln) (37 °C): -1.58 ± 0.14

Sequence: UGUCAGCAAUAUUACGUGGA
- self-splicing fitness (ln) (30 °C): -1.92 ± 0.1
- self-splicing fitness (ln) (37 °C): -0.49 ± 0.11

Sequence: GCUGAGCAAUAUUACGUUGG
- self-splicing fitness (ln) (30 °C): -2.52 ± 0.26
- self-splicing fitness (ln) (37 °C): -1.9 ± 0.28

Sequence: CUGCAGCAAUAUUACGAGUC
- self-splicing fitness (ln) (30 °C): -3.68 ± 0.23
- self-splicing fitness (ln) (37 °C): -2.59 ± 0.41

Sequence: UUGUAGCAAUAUUACGUGGU
- self-splicing fitness (ln) (30 °C): -3.35 ± 0.3
- self-splicing fitness (ln) (37 °C): -3.67 ± 0.42

Sequence: AGUCAGCAAUAUUACGGCCA
- self-splicing fitness (ln) (30 °C): -0.485 ± 0.14
- self-splicing fitness (ln) (37 °C): -0.0722 ± 0.2

Sequence: CACCAGCAAUAUUACGUAAA
- self-splicing fitness (ln) (30 °C): -3.49 ± 0.15
- self-splicing fitness (ln) (37 °C): -1.6 ± 0.11

Sequence: UAUAAGCAAUAUUACGAAAC
- self-splicing fitness (ln) (37 °C): -0.0191 ± 0.39

Sequence: AACUAGCAAUAUUACGCGUU
- self-splicing fitness (ln) (30 °C): -3.51 ± 0.19
- self-splicing fitness (ln) (37 °C): -2.48 ± 0.29

Sequence: CUCAAGCAAUAUUACGUUCC
- self-splicing fitness (ln) (30 °C): -3.08 ± 0.32
- self-splicing fitness (ln) (37 °C): -2.32 ± 0.26

Sequence: UGUCAGCAAUAUUACGUUCU
- self-splicing fitness (ln) (30 °C): -1.16 ± 0.071
- self-splicing fitness (ln) (37 °C): -0.142 ± 0.073

Sequence: AAAGAGCAAUAUUACGUGUC
- self-splicing fitness (ln) (30 °C): -3.42 ± 0.15
- self-splicing fitness (ln) (37 °C): -2.2 ± 0.12

Sequence: AAUGAGCAAUAUUACGAGUG
- self-splicing fitness (ln) (30 °C): -3.11 ± 0.27
- self-splicing fitness (ln) (37 °C): -2.23 ± 0.23

Sequence: GUUAAGCAAUAUUACGUUGG
- self-splicing fitness (ln) (30 °C): -2.45 ± 0.14
- self-splicing fitness (ln) (37 °C): -1.19 ± 0.15

Sequence: GGGUAGCAAUAUUACGAGCU
- self-splicing fitness (ln) (30 °C): -0.974 ± 0.17
- self-splicing fitness (ln) (37 °C): -1.33 ± 0.19

Sequence: UAUUAGCAAUAUUACGUUCA
- self-splicing fitness (ln) (30 °C): -1.04 ± 0.1
- self-splicing fitness (ln) (37 °C): -0.21 ± 0.14

Sequence: CAAUAGCAAUAUUACGCGAG
- self-splicing fitness (ln) (30 °C): -1.76 ± 0.086
- self-splicing fitness (ln) (37 °C): -0.754 ± 0.096

Sequence: GAAGAGCAAUAUUACGCGCA
- self-splicing fitness (ln) (30 °C): -1.11 ± 0.2
- self-splicing fitness (ln) (37 °C): -1.35 ± 0.14

Sequence: AGAGAGCAAUAUUACGAGCG
- self-splicing fitness (ln) (30 °C): -2.63 ± 0.3

Sequence: UUAUAGCAAUAUUACGAAAU
- self-splicing fitness (ln) (30 °C): -3.75 ± 0.34
- self-splicing fitness (ln) (37 °C): -1.34 ± 0.3

Sequence: GGAGAGCAAUAUUACGAGGU
- self-splicing fitness (ln) (30 °C): -3.34 ± 0.32
- self-splicing fitness (ln) (37 °C): -3.01 ± 0.37

Sequence: CCACAGCAAUAUUACGGUUG
- self-splicing fitness (ln) (30 °C): -1.72 ± 0.047
- self-splicing fitness (ln) (37 °C): -0.701 ± 0.058

Sequence: CAAGAGCAAUAUUACGUGGU
- self-splicing fitness (ln) (30 °C): -3.24 ± 0.11
- self-splicing fitness (ln) (37 °C): -2.46 ± 0.16

Sequence: UGGUAGCAAUAUUACGGAAU
- self-splicing fitness (ln) (37 °C): -0.962 ± 0.23

Sequence: AGUAAGCAAUAUUACGCAGG
- self-splicing fitness (ln) (30 °C): -3.42 ± 0.23
- self-splicing fitness (ln) (37 °C): -1.43 ± 0.2

Sequence: GUCUAGCAAUAUUACGACCA
- self-splicing fitness (ln) (30 °C): -0.99 ± 0.26
- self-splicing fitness (ln) (37 °C): -2.1 ± 0.29

Sequence: AAGGAGCAAUAUUACGUGAA
- self-splicing fitness (ln) (30 °C): -2.22 ± 0.34

Sequence: UUGAAGCAAUAUUACGGUCG
- self-splicing fitness (ln) (30 °C): 0.0283 ± 0.088
- self-splicing fitness (ln) (37 °C): 0.283 ± 0.1

Sequence: GGAUAGCAAUAUUACGUAUG
- self-splicing fitness (ln) (30 °C): -1.66 ± 0.28
- self-splicing fitness (ln) (37 °C): -0.951 ± 0.23

Sequence: ACGUAGCAAUAUUACGAAUA
- self-splicing fitness (ln) (30 °C): -2.32 ± 0.17
- self-splicing fitness (ln) (37 °C): -1.46 ± 0.12

Sequence: CCACAGCAAUAUUACGCGGA
- self-splicing fitness (ln) (30 °C): -3.84 ± 0.21
- self-splicing fitness (ln) (37 °C): -1.01 ± 0.11

Sequence: GUUUAGCAAUAUUACGAUCU
- self-splicing fitness (ln) (30 °C): -0.663 ± 0.12
- self-splicing fitness (ln) (37 °C): -0.195 ± 0.18

Sequence: UCGCAGCAAUAUUACGGGUU
- self-splicing fitness (ln) (30 °C): -2.63 ± 0.14
- self-splicing fitness (ln) (37 °C): -2.38 ± 0.16

Sequence: GAGCAGCAAUAUUACGGGGA
- self-splicing fitness (ln) (30 °C): -2.84 ± 0.21
- self-splicing fitness (ln) (37 °C): -2.05 ± 0.14

Sequence: AGAAAGCAAUAUUACGAAUA
- self-splicing fitness (ln) (30 °C): -2.51 ± 0.17
- self-splicing fitness (ln) (37 °C): -0.949 ± 0.14

Sequence: UAUUAGCAAUAUUACGGGUC
- self-splicing fitness (ln) (30 °C): -2.14 ± 0.37
- self-splicing fitness (ln) (37 °C): -2.29 ± 0.35

Sequence: AAGGAGCAAUAUUACGAGAU
- self-splicing fitness (ln) (37 °C): -2.41 ± 0.24

Sequence: GCAUAGCAAUAUUACGCCCG
- self-splicing fitness (ln) (30 °C): -1.24 ± 0.32
- self-splicing fitness (ln) (37 °C): -0.11 ± 0.32

Sequence: CCCUAGCAAUAUUACGCUUA
- self-splicing fitness (ln) (30 °C): -3.78 ± 0.18
- self-splicing fitness (ln) (37 °C): -2.86 ± 0.12

Sequence: GAUCAGCAAUAUUACGCCGU
- self-splicing fitness (ln) (30 °C): -0.933 ± 0.098
- self-splicing fitness (ln) (37 °C): -0.477 ± 0.12
